Laboratory results taken from US20220073643A1.
Residue numbers refer to the chain shown, from its start.

B1: 392C2F10 (antibody, V domains shown)
VH: EVQLQQSGPELVKPGASMKISCKASGYSFTGYTMNWVKQSLGKNLEWIGLINPFNGGTTYNQKFKGKATLTVDKSSSTAYMELLSLTSDDSAVYYCTRGDYWGQGTTLTVSS
VL: DIVMTQSPSSLTVTAGEKVTMSCKSSQSLLNSGNQKNYLTWYQQKPGQPPKLLIYWASTRESGVPDRFAGSGSGTDFTLTISSVQAEDLAVYYCQSDYSYPTFGAGTKLELK
B2: 263E9F3 (antibody, V domains shown)
VH: EIQVQQSGPELMKPGASVKISCRSSGYSFTSYYIHWVKQSRGKSLEWIGYIDPFSGGTRYNQKFEGKATLTVDKSSTTAYMHLSSLTSEDSAVYYCASLRFFAYWGQGTLVTVSA
VL: DIVMTQSPSSLTVTAGEKVTMTCKSSQSLLNSGNQENYLTWYQQKPGQPPELLISRASTRQSGVPDRFTGSGSGTDFTLTISSVQTEDLAVYYCQNDYSYPLTFGAGTKLELK
B3: 275B2G2 (antibody, V domains shown)
VH: EVMLVESGGGLVKPGGSLKLSCAASGFTFRDYTMSWVRQTPEKRLEWVATSIIGGTYTYYPDSVKGRFTISRDNVKNTLYLQMSSLRSEDTAMYYCSRLGRGNAMDYWGQGTSVTVSS
VL: B2 VL with T22S, E36K, E51K, S55Y, R56W, Q61E, T86A, L102F, A106S, L112I
B4: 198F10B8 (antibody, V domains shown)
VH: QAYLQQSGAELVRSGASVRMSCKASGYTFSSYNMHWVKQTPGQGLEWIGYIYPGNGGTNYNQKFKDKATLTADTSSSTAFIQISSLTSEDSAVYFCLTGRGFAYWGQGTLVTVSA
VL: B2 VL with K18R, T22S, L30F, E36K, E51K, S55Y, Q61E, T86A, A106V
B5: 370E2B12C3 (antibody, V domains shown)
VH: QVQLKESGPGLVAPSQSLSITCTVSGFSLTTYGVHWVRQPPGKGLEWLGVIWAGGSTNYNSALMSRVSINKDNSKSQVFIKMNSLQADDTALYYCARAAYYGNGLDYWGQGTTLTVSS
VL: DIVMTQSPSSLTVTAGEKVTMSCKSSQTLLNSGNQKNYLTWYQQKPGQPPKLLIYWASTGESGVPDRFTGSGSGTDFTLTISSVQAEDLAVYFCQNAYFYPFTFGGGTKLEIK
B6: 393C2C5 (antibody, V domains shown)
VH: DVQLVESGGGLVQPGGSRKLSCAASGFTFSSFGMHWVRQAPEKGLEWVAYISSGSSPIYYADTVKGRFTISRDNPKNTLFLQMTSLRSEDTAMYFCATFYYGNSFAYWGQGTLVTVSA
VL: B5 VL with P46S, G60R, F93Y, F99S, F102V, G106S, L110V, I112L
B7: 391F1G2 (antibody, V domains shown)
VH: B6 VH with T98R, F99I
VL: B5 VL with T20A, I54L, G60R, F93Y, F99Y, F102L, G106S, I112L
B8: 196A12B10 (antibody, V domains shown)
VH: QIQWVQSGPELKKPRETVKISCKASGYTFTDYSMHWVKQAPGKGLKWMGWINSETGEATYADDFRGRFALSLETSATTAFLQINSLKNEDTGTYFCARFYYGNSFASWGQGTTLTVSS
VL: DIVMTQFPSSLTVTAGEKVTMTCKSSQSLLNGGNQKNYLTWYQQKPGLPPKLLIYWASTRESGVPDRFTGSGSGTEFTLTISSVQAEDLAVYYCQNNYYFPLTFGAGTKLELK
B9: 405G8F11 (antibody, V domains shown)
VH: B6 VH with A23V, A24T, T84S, T98R
VL: DIVMTQSPSSLTVTAGEKVTMNCKSSQSLLNSGNQKNYLTWYQQKLGQPPKLLMYWASTRESGVPDRFTGSGSGTDFTLTISSVQAEDLAVYFCQSAFSYPLTFGAGTKLELK
B10: 406G3C4 (antibody, V domains shown)
VH: EIQLQQSGPELMKPGASVRISCKASGYSFISYYIYWVKQSHGKGLEWIGYIDPFNGNTNYNQKFKGKATLTVDRSSSTAYIHLNSLTSEDSAVYYCAIVNGYGRGAMDYWGQGTSVTVSS
VL: QIVLTQSPAIMSASPGEKVTMTCSASSSISYMHWYQQKSGTSPKRWIYDTSKLASGVPARFSGSGSGTSYSLTISSMEAEDAATYYCQQWSSNPLTFGDGTKLELK
B11: 265E6G2 (antibody, V domains shown)
VH: QAYLQQSGAELVRSGASVKMSCKASGYTFTSYNMHWVKQTPGQGLEWIGYIYPGNGGTNYNQKFKGKATLTADTSSSTAYMQISSLTSEDSAVYFCARDYYGNSFAYWGQGTLVTVSA
VL: DLVMTQSPSSLTVTAGEKVTMSCKSSQSLLNSGNQKNYLTWYQQKPGQPPKLLIYWASTRESGVPDRFTGSGSGTDFTLTISNIQAEDLAVYYCQNDYSYPLPFGAGTKLELR
B12: 277F1F8 (antibody, V domains shown)
VH: B11 VH with A9P, Y32H, Y52N, T58N, Y107F
VL: B8 VL with F7S, V13E, T20S, T22S, G32S, L48Q, E76D, N97D, Y99R, L102F
B13: 267B2C5 (antibody, V domains shown)
VH: QVQLKESGPGLVAPSQSLAITCTVSGFSLTTYGVSWVRQPPGKGLEWLGVIWGDGSTHYHSALISRLSIRKDNSKSQVFLKVNSLQTDDTATYYCGKPGRGNAMDYWGQGTSVTVSS
VL: B5 VL with T28S, P49S, G60R, F93Y, A97D, F99I, F102L, K109T, I112L
B14: 406F11G8 (antibody, V domains shown)
VH: B6 VH with P75S, T98R, F99I
VL: B5 VL with T20A, G60R, F93Y, F99Y, F102L, G106S, I112L
B15: 394C2G5 (antibody, V domains shown)
VH: B6 VH with S31G, V37I, A40T, I51V, S56R, T98R, A106D, Y107H
VL: B11 VL with L2I, S10F, S82N, I84V, V91L, D97A, Y100F, P103T, R113T
B16: 391H11H3 (antibody, V domains shown)
VH: B6 VH with S31G, V37I, A40T, S56R, K65Q, T98R, A106D, Y107H, A118S
VL: B8 VL with F7S, S10F, T22S, G32S, L48Q, E76D, V91L, N97A, Y99S
B17: 273C10E5 (antibody, V domains shown)
VH: QVQLQQSGAELVKPGASVKLSCKASGYTFTSFGINWLRQRPEQGLEWIGWIFPGDGNSKYNENFKGKATLTTDKSSSTAYMQVTRLTSEDSAVYFCARFYYGNSFANWGQGTLVTVSA
VL: B5 VL with T28S, S58A, G60R, T69A, F93Y, A97D, G106A, I112L
B18: 279E8B8 (antibody, V domains shown)
VH: B11 VH with M20I, T30A, Y32H, N59K, K65T, T71S, M81L, Y101F, A106V
VL: DIVMTQSPSSLTEKAGEKVSMRCKSSQSLLNSGNQKNYLTWYQQKPGQPPKLLIYWASTRESGVPDRFTGSGSGTDFTLTISSVQADDLAVYYCQNDYMYPFTFGAGTKLELK
B19: 275H9A2 (antibody, V domains shown)
VH: B11 VH with K23R, T28S, Y32H, T58S, N59Y, T69I, A97T, A106V
VL: B18 VL with I2V, A15T, R22S, V84L, A86T, D87E, D97N, Y98F, M99R
B20: 406E1H7 (antibody, V domains shown)
VH: B6 VH with S31G, V37I, A40T, S56R, K65Q, T98R, A106D, Y107H, A118S
VL: B8 VL with F7S, S10F, T22S, G32S, L48Q, E76D, V91L, N97A, Y99S
B21: 280F3B6 (antibody, V domains shown)
VH: B11 VH with Y32H, A97T
VL: B18 VL with K18R, R22S, L30F, D87E, M99W
B22: 273F3D4 (antibody, V domains shown)
VH: B13 VH with A19S, S28A, V82L, G96A
VL: B11 VL with L2I, T5S, P49S, N83S, I84M, S99I, P103T, K109M, R113K
B23: 267H5F12 (antibody, V domains shown)
VH: B11 VH with Y32H, Y52S, G57Y, K65R, A97T, A106T
VL: B18 VL with K18R, R22S, L30F, D76E, D87E, D97N, M99W, Y100F
B24: 292D9C7 (antibody, V domains shown)
VH: QVQLKESGPGLVAPSQSLSITCTVSGFSLTDYGVSWIRQPPGKGLEWLGVIWGGGNAYYNSALKSRLSISKDNSKSQVFLKMNSLRTDDTAMYYCAKNGLLRYLDYWGQGSTLTVSS
VL: B11 VL with L2T, T75R, N83S, I84V, A86V, V91I, S99Y, P103T, L110V, R113K
B25: 395B3C11 (antibody, V domains shown)
VH: B6 VH with S31G, V37I, A40T, S56R, K65Q, T98R, A106D, Y107H, A118S
VL: B8 VL with F7S, S10F, T22S, G32S, L48Q, E76D, V91L, N97A, Y99S
B26: 392A11C8 (antibody, V domains shown)
VH: B6 VH with S31G, V37I, A40T, S56R, T98R, A106D, Y107H
VL: B8 VL with F7S, S10F, T22S, K24R, G32S, L48Q, E76D, V91L, N97A, Y99S
B27: 286C7F11 (antibody, V domains shown)
VH: B24 VH with G53N, G54R, A57T, K81R, R86Q, N98H, G99D, L100F, Y103F, S111T
VL: B11 VL with L2V, L52I, T78S, S82T, N83S, I84V, Q95L, S99Y, P103T, R113K
B28: 266B11F7 (antibody, V domains shown)
VH: QVQMKESGPGLVAPSQSLSITCTVSGFSLTTYGVTWVRQPPGKGLEWLGVIWGDGSTNYHSALTSRLRISKDKSKSQVFLKLSSLQTDDTATYYCAKPGRGNALDYWGQGTSVTVSS
VL: B8 VL with F7S, T22R, G32S, L48Q, I54V, E76D, I81V, N97D, Y99I

Each binder was assayed against Claudin18.2-His protein (human) (assay: indirect ELISA on coated Claudin18.2-His).

B1 and B2 are within 1.5-fold of each other in EC50: 0.0153 µg/mL for the first, 0.0113 µg/mL for the second.

B3 and B4 are within 1.5-fold of each other in EC50: 0.028 µg/mL for the first, 0.0315 µg/mL for the second.

First: B5
Second: B6
The EC50 of the first is 3.2-fold lower: 0.0156 µg/mL for the first, 0.0504 µg/mL for the second.

Going from B7 to B8, the EC50 rises from 0.00836 µg/mL to 0.0192 µg/mL (2.3-fold).

Compared with B9, B10 is 4.6-fold higher in EC50: 0.00199 µg/mL for the first, 0.00918 µg/mL for the second.

B11 and B12 are within 1.5-fold of each other in EC50: 0.0183 µg/mL for the first, 0.0158 µg/mL for the second.

B13 and B14 are within 1.5-fold of each other in EC50: 0.0113 µg/mL for the first, 0.016 µg/mL for the second.

First: B15
Second: B16
The EC50 of the first is 1.9-fold lower: 0.00846 µg/mL for the first, 0.0162 µg/mL for the second.

B17 and B18 are the same in EC50: 0.0201 µg/mL for the first, 0.0201 µg/mL for the second.

Going from B19 to B20, the EC50 falls from 0.0245 µg/mL to 0.00955 µg/mL (2.6-fold).

First: B21
Second: B22
The EC50 of the first is 1.9-fold lower: 0.012 µg/mL for the first, 0.0233 µg/mL for the second.

First: B23
Second: B24
The EC50 of the first is 2.8-fold lower: 0.00822 µg/mL for the first, 0.0232 µg/mL for the second.

Going from B25 to B26, the EC50 rises from 0.00443 µg/mL to 0.021 µg/mL (4.7-fold).

B27 and B28 are within 1.5-fold of each other in EC50: 0.0155 µg/mL for the first, 0.0168 µg/mL for the second.
